Measured values reported in article doi:10.1101/2020.11.18.389114.
Read-outs that look alike come from different tables or passages of the source. Where no end group is shown, it is not given here. [ ]: non-standard residue; d: D form. The star is where a group is joined. FITC = O=C1OC2(c3ccc(O)cc3Oc3cc(O)ccc32)c2ccc(NC(=S)*)cc21; pT = C[C@@H](OP(=O)(O)O)[C@H](N)C(=O)O; pS = N[C@@H](COP(=O)(O)O)C(=O)O; Aβ = not defined here

Columns and labels:
[1] = molecular target: MpIBP_RIII1-4 (Marinomonas primoryensis ice-binding protein, Region III domains 1-4), truncated construct ending at N507 (Marinomonas primoryensis); experiment: fluorescence polarisation
[2] = molecular target: MpIBP_RIII1-4 (Marinomonas primoryensis ice-binding protein, Region III domains 1-4), truncated construct ending at N507 (Marinomonas primoryensis); experiment: ITC
[3] = molecular target: MpIBP_RIII1-4 (Marinomonas primoryensis ice-binding protein, Region III domains 1-4), truncated construct ending at N507 (Marinomonas primoryensis); experiment: fluorescence polarisation; remark: listed apart in the source

B1: FITC-AβGPDD (peptide)
peptide: {FITC-Aβ}-GPDD
modifications: reading uncertain; also: printed as FITC-AβGPDD
[1]
  fold by which FITC-AβGPDSD binds stronger than FITC-AβGPDD: 20 fold

B2: FITC-AGAGY (peptide)
peptide: {FITC}-AGAGY
[1]
  EC50: 4600 nM

B3: AGAGD (unlabelled peptide) (peptide)
peptide: AGAGD
[2]
  Kd: 1900 nM
  stoichiometry N: 1

B4: FITC-AGAFD (peptide)
peptide: {FITC}-AGAFD
[3]
  EC50: 180 nM

B5: FITC-AGAPD (peptide)
peptide: {FITC}-AGAPD
[3]
  EC50: 4600 nM

B6: FITC-AGWTD (peptide)
peptide: {FITC}-AGWTD
[1]
  EC50: 23 nM

B7: FITC-AβGPDSN (peptide)
peptide: {FITC-Aβ}-GPDSN
modifications: reading uncertain; also: printed as FITC-AβGPDSN
[1]
  EC50: 270 nM

B8: AGATD (unlabelled peptide) (peptide)
peptide: AGATD
[2]
  Kd: 86 nM
  stoichiometry N: 1

B9: FITC-AGATD (peptide)
peptide: {FITC}-AGATD
[1]
  EC50: 72 nM
[3]
  EC50: 89 nM

B10: FITC-AGAGD (peptide)
peptide: {FITC}-AGAGD
[1]
  EC50: 3200 nM
[3]
  EC50: 1500 nM

B11: FITC-RHKKLMFK(pT)EGPDSD (peptide)
peptide: {FITC}-RHKKLMFK[pT]EGPDSD-OH
[1]
  EC50: 690 nM

B12: AGYTS (unlabelled peptide) (peptide)
peptide: AGYTS
[2]
  Kd: 59 nM
  stoichiometry N: 1

B13: FITC-AβDSTD (peptide)
peptide: {FITC-Aβ}-DSTD
modifications: reading uncertain; also: printed as FITC-AβDSTD
[1]
  EC50: 110 nM

B14: FITC-AGAGI (peptide)
peptide: {FITC}-AGAGI
[1]
  EC50: 4400 nM

B15: FITC-AβGPDSD (peptide)
peptide: {FITC-Aβ}-GPDSD
modifications: reading uncertain; also: printed as FITC-AβGPDSD
[1]
  EC50: 160 nM

B16: FITC-AGAGF (peptide)
peptide: {FITC}-AGAGF
[1]
  EC50: 7200 nM

B17: FITC-AβDSTPD (peptide)
peptide: {FITC-Aβ}-DSTPD
modifications: reading uncertain; also: printed as FITC-AβDSTPD
[1]
  EC50: 27000 nM
  affinity: 26 µM

B18: FITC-AGAYD (peptide)
peptide: {FITC}-AGAYD
[3]
  EC50: 170 nM

B19: AGYTD (unlabelled peptide) (peptide)
peptide: AGYTD
[2]
  Kd: 67 nM
  stoichiometry N: 1

B20: FITC-AGYTD (peptide)
peptide: {FITC}-AGYTD
[1]
  EC50: 29 nM

B21: FITC-AGYTS (peptide)
peptide: {FITC}-AGYTS
[1]
  EC50: 30 nM

B22: FITC-IKARAS(pS)… (peptide)
peptide: {FITC}-IKARAS[pS]SPVILVGTHLD-OH
[1]
  EC50: 2700 nM

B23: FITC-AGASD (peptide)
peptide: {FITC}-AGASD
[3]
  EC50: 310 nM

B24: FITC-AGCTD (peptide)
peptide: {FITC}-AGCTD
[1]
  EC50: 23 nM
